# System: CIZ1 N571 (GST-N571) (Mus musculus)
# Test: EMSA
# Settings: 0.3 nM RNA; 10 mM Tris-HCl pH 7.5, 30 mM NaCl, 2.5 mM MgCl2, 0.2 mM DTT, 0.1% IGEPAL CA-630, 0.1 mg/ml yeast tRNA, 0.4 U RNaseOUT, 1% glycerol; 30 C 20 min; 0.7% agarose …
row,Substance,K half [nM]
1,Xist repeat A,200
2,Xist repeat E proximal,100

# — PMC8927971
